Test results as given in the supplement of paper PMC7125110.
± gives the standard error. For some of these results: Fewer inactive variants are shown than the library holds.

B1: glmS ribozyme (parent)
chain: AUAAAAGCGCCAGAACUACAGAAAUGUAGUUGACGAGGAGGAGGUUUAUCGAAUUUUCGGCGGAUGCCUCCAAA

What was measured:
Details in all cases: with glucosamine-6-phosphate
glucosamine-6-phosphate [1] = variants of: B1; test: kcat; higher = faster cleavage; RNA array
How it was run: (§1)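 kobs was derived by fitting per-tile medians to one- or two-exponential decays after normalising signals to baseline and to non-cleaving reference variants. Those signals came from barcoded ribozyme variants transcribed in situ by E. coli RNA polymerase on sequenced MiSeq chips, followed through a hybridised Cy3 probe at 37 °C and imaged over ~14 h. Glucosamine-6-phosphate (40 μM to 10 mM) in HEPES/KCl/Mg(OAc)2 buffer was flowed in. Weighted Michaelis–Menten fits across concentrations then gave kcat and KM.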

glucosamine-6-phosphate [2] = variants of: B1; test: KM; higher = weaker cofactor use; RNA array
How it was run: as §1

glucosamine-6-phosphate [3] = variants of: B1; test: self-cleavage kobs at 160 uM GlcN6P; higher = faster cleavage; RNA array
How it was run: as §1

glucosamine-6-phosphate [4] = variants of: B1; test: self-cleavage kobs at 640 uM GlcN6P; higher = faster cleavage; RNA array
How it was run: as §1

glucosamine-6-phosphate [5] = variants of: B1; test: self-cleavage kobs at 2500 uM GlcN6P; higher = faster cleavage; RNA array
How it was run: as §1

glucosamine-6-phosphate [6] = variants of: B1; test: self-cleavage kobs at 10000 uM GlcN6P; higher = faster cleavage; RNA array
How it was run: as §1

glucosamine-6-phosphate [7] = variants of: B1; test: self-cleavage kobs at 40 uM GlcN6P; higher = faster cleavage; RNA array
How it was run: as §1

Variant	kcat (glucosamine-6-phosphate [1]) [s⁻¹]	KM (glucosamine-6-phosphate [2]) [µM]	self-cleavage kobs at 160 uM GlcN6P (glucosamine-6-phosphate [3]) [s⁻¹]	self-cleavage kobs at 640 uM GlcN6P (glucosamine-6-phosphate [4]) [s⁻¹]	self-cleavage kobs at 2500 uM GlcN6P (glucosamine-6-phosphate [5]) [s⁻¹]	self-cleavage kobs at 10000 uM GlcN6P (glucosamine-6-phosphate [6]) [s⁻¹]	self-cleavage kobs at 40 uM GlcN6P (glucosamine-6-phosphate [7]) [s⁻¹]
A14U G29A	0.00088 ± 5.1e-05	3420 ± 290	4.16e-05 ± 1e-05	0.000137 ± 1.7e-05	0.000368 ± 5.1e-05	0.000665 ± 0.00011	
A14G A15U C68G	8.39e-05 ± 2.5e-05		5.83e-05 ± 2.5e-05	4.44e-05 ± 1.3e-05	9.14e-05 ± 2.3e-05	7.97e-05 ± 2.3e-05	
A15C U55C	0.00633 ± 0.0012	2200 ± 580	0.000383 ± 7.4e-05	0.00121 ± 0.00034	0.00302 ± 0.00052	0.00573 ± 0.00087	0.000138 ± 2e-05
A14G C67G	0.00362 ± 0.00046	1530 ± 280	0.000388 ± 6e-05	0.00104 ± 0.00011	0.00164 ± 0.00033	0.00339 ± 0.0003	9.34e-05 ± 8.5e-06
A14C U57C	5.66e-05 ± 5.7e-07	1390 ± 73			3.68e-05 ± 1.3e-05	4.96e-05 ± 7.4e-06	< 1e-05
A14G G32A	0.0158 ± 0.0015	2500 ± 310	0.000935 ± 0.00013	0.00305 ± 0.0005	0.00726 ± 0.0011	0.0136 ± 0.0018	0.000266 ± 3.1e-05
A14U A48U	0.000103 ± 7.3e-06	9240 ± 1300				5.37e-05 ± 9.7e-06	
A14U A48C	7.33e-05 ± 4.6e-06	2020 ± 420			3.85e-05 ± 9.5e-06	6.17e-05 ± 9.4e-06	
A14U A39C	0.00121 ± 0.00019	2790 ± 700	7.69e-05 ± 1.2e-05	0.000203 ± 2.4e-05	0.000537 ± 8.2e-05	0.000981 ± 9.1e-05	2.83e-05 ± 7.2e-06
A14U A39G	0.0158 ± 0.0077		0.000604 ± 0.00015	0.00493 ± 0.0011	0.00644 ± 0.0013	0.0136 ± 0.0025	0.000381 ± 6.3e-05
A15G U65C	0.000964 ± 0.00027		7.34e-05 ± 2.9e-05	0.00026 ± 5e-05	0.000852 ± 0.00013	0.000673 ± 0.00014	
A15C C70A	6.11e-05 ± 1.2e-05		3.37e-05 ± 1.6e-05	5.56e-05 ± 1.2e-05	9.56e-05 ± 1.5e-05	4.95e-05 ± 8.2e-06	
A14U G41U	0.000307 ± 3.4e-05	1010 ± 220	4.48e-05 ± 7.9e-06	0.000109 ± 1.4e-05	0.000292 ± 5.4e-05	0.000271 ± 3.1e-05	
A15C C70G C71A	4.1e-05 ± 1.4e-05		4.75e-05 ± 2e-05	6.35e-05 ± 1.7e-05			
